The record followed here is PMC10850505, “Molecular mechanism of specific HLA-A mRNA recognition by the RNA-binding-protein hMEX3B to promote tumor immune escape”.

For data set [1], the target named is T1, hMEX3B KH1/2 WT (Homo sapiens, UniProt Q6ZN04 56-230).
T1 sequence: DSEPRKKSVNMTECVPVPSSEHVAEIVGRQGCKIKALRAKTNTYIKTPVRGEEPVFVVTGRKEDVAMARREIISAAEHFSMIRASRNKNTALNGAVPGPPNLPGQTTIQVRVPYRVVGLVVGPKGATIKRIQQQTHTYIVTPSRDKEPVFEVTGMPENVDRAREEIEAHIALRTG
The data set can be described thus: ITC; N 0.96; ITC at 298 K, protein injected into RNA, both dialyzed in the same buffer (composition not in the material; purification SEC buffer 2 M NaCl, 20 mM Tris pH 7.5); NMR at 298 K, 0.1 mM protein. To be noted: protein: recombinant; tags: 6xHis-SUMO cleaved (ULP1).

Data set [2] concerns the target T1, hMEX3B KH1/2 WT. The data set can be described thus: ITC; N 0.94; ITC at 298 K, protein injected into RNA, both dialyzed in the same buffer (composition not in the material; purification SEC buffer 2 M NaCl, 20 mM Tris pH 7.5); NMR at 298 K, 0.1 mM protein. Particulars: protein: recombinant; tags: 6xHis-SUMO cleaved (ULP1). Background: In ITC the heat of successive injections is recorded.

The target in data set [3] is T1, hMEX3B KH1/2 WT. The data set can be described thus: ITC; N 0.89; ITC at 298 K, protein injected into RNA, both dialyzed in the same buffer (composition not in the material; purification SEC buffer 2 M NaCl, 20 mM Tris pH 7.5); NMR at 298 K, 0.1 mM protein. To be noted: protein: recombinant; tags: 6xHis-SUMO cleaved (ULP1).
In data set [4] the target is T2, hMEX3B KH2 WT (Homo sapiens, UniProt Q6ZN04 156-230).
T2 sequence: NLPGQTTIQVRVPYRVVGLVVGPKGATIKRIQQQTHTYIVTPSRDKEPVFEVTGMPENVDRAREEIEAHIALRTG
The data set can be described thus: ITC; N 1.02; ITC at 298 K, protein injected into RNA, both dialyzed in the same buffer (composition not in the material; purification SEC buffer 2 M NaCl, 20 mM Tris pH 7.5); NMR at 298 K, 0.1 mM protein. Particulars: protein: recombinant; tags: modified pET28a without thrombin site (His tag likely retained).

Data set [5] deals with T3, hMEX3B KH1 WT (Homo sapiens, UniProt Q6ZN04 56-144).
T3 sequence: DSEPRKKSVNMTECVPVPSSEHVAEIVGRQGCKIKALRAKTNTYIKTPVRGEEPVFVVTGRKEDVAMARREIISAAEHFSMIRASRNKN
The data set can be described thus: ITC; ITC at 298 K, protein injected into RNA, both dialyzed in the same buffer (composition not in the material; purification SEC buffer 2 M NaCl, 20 mM Tris pH 7.5); NMR at 298 K, 0.1 mM protein. Particulars: protein: recombinant; tags: modified pET28a without thrombin site (His tag likely retained).

Data set [6] concerns the target T2, hMEX3B KH2 WT. The data set is described as above. Particulars: protein: recombinant; tags: modified pET28a without thrombin site (His tag likely retained).
Data set [7] addresses T1, hMEX3B KH1/2 WT. The data set can be described thus: ITC; N 0.91; ITC at 298 K, protein injected into RNA, both dialyzed in the same buffer (composition not in the material; purification SEC buffer 2 M NaCl, 20 mM Tris pH 7.5); NMR at 298 K, 0.1 mM protein. To be noted: protein: recombinant; tags: 6xHis-SUMO cleaved (ULP1).
For data set [8], the target named is T2, hMEX3B KH2 WT. The data set can be described thus: ITC; N 1.79; ITC at 298 K, protein injected into RNA, both dialyzed in the same buffer (composition not in the material; purification SEC buffer 2 M NaCl, 20 mM Tris pH 7.5); NMR at 298 K, 0.1 mM protein. To be noted: protein: recombinant; tags: modified pET28a without thrombin site (His tag likely retained).

Data set [9] addresses T4, hMEX3B KH1/2 (T102A/R105A) (Homo sapiens, UniProt Q6ZN04 56-230, T102A;R105A).
T4 sequence: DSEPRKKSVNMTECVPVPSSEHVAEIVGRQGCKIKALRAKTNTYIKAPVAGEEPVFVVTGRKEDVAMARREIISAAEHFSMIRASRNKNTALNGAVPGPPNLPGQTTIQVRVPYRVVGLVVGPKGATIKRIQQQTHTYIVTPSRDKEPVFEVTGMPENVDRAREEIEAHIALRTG
The data set can be described thus: ITC; N 0.79; ITC at 298 K, protein injected into RNA, both dialyzed in the same buffer (composition not in the material; purification SEC buffer 2 M NaCl, 20 mM Tris pH 7.5); NMR at 298 K, 0.1 mM protein. Particulars: protein: recombinant; tags: 6xHis-SUMO cleaved (ULP1).

For a further data set, the target named is T5, hMEX3B KH1/2 (G83D/G86D) (Homo sapiens, UniProt Q6ZN04 56-230, G83D;G86D).
T5 sequence: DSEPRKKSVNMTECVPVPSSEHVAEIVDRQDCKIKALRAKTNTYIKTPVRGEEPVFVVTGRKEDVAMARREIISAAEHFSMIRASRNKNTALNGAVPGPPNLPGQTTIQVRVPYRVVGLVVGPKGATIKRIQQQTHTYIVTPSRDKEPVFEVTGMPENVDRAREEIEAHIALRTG
The data set can be described thus: ITC; N 0.67; ITC at 298 K, protein injected into RNA, both dialyzed in the same buffer (composition not in the material; purification SEC buffer 2 M NaCl, 20 mM Tris pH 7.5); NMR at 298 K, 0.1 mM protein. To be noted: protein: recombinant; tags: 6xHis-SUMO cleaved (ULP1).

For data set [10], the target named is T6, hMEX3B KH1/2 (G177D/G180D) (Homo sapiens, UniProt Q6ZN04 56-230, G177D;G180D).
T6 sequence: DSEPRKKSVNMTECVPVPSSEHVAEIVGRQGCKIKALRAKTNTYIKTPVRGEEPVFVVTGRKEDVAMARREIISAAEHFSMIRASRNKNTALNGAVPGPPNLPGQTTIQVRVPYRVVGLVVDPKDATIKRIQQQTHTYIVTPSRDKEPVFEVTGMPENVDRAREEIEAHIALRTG
The data set can be described thus: ITC; N 0.89; ITC at 298 K, protein injected into RNA, both dialyzed in the same buffer (composition not in the material; purification SEC buffer 2 M NaCl, 20 mM Tris pH 7.5); NMR at 298 K, 0.1 mM protein. To be noted: protein: recombinant; tags: 6xHis-SUMO cleaved (ULP1).

A further data set concerns the target T7, hMEX3B KH1/2 (G4D) (Homo sapiens, UniProt Q6ZN04 56-230, G83D;G86D;G177D;G180D).
T7 sequence: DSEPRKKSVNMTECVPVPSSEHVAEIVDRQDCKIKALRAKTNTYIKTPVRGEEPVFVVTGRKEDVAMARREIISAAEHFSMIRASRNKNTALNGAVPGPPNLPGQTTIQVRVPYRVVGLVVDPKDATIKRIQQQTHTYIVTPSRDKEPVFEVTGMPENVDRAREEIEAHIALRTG
The data set can be described thus: ITC; ITC at 298 K, protein injected into RNA, both dialyzed in the same buffer (composition not in the material; purification SEC buffer 2 M NaCl, 20 mM Tris pH 7.5); NMR at 298 K, 0.1 mM protein. To be noted: protein: recombinant; tags: 6xHis-SUMO cleaved (ULP1).

Another data set concerns the target T8, hMEX3B KH1/2 (TR4A) (Homo sapiens, UniProt Q6ZN04 56-230, T102A;R105A;T196A;R199A).
T8 sequence: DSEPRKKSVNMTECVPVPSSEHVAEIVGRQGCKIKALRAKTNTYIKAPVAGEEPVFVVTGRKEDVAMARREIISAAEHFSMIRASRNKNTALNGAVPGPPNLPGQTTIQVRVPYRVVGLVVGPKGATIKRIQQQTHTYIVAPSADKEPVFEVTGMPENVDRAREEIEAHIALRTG
The data set is described as above. To be noted: protein: recombinant; tags: 6xHis-SUMO cleaved (ULP1).

The target of data set [11] is T3, hMEX3B KH1 WT. Put plainly: ITC; N 1.91; ITC at 298 K, protein injected into RNA, both dialyzed in the same buffer (composition not in the material; purification SEC buffer 2 M NaCl, 20 mM Tris pH 7.5); NMR at 298 K, 0.1 mM protein. To be noted: protein: recombinant; tags: modified pET28a without thrombin site (His tag likely retained).
Data set [12] has as its target T9, hMEX3B KH1/2 (T196A/R199A) (Homo sapiens, UniProt Q6ZN04 56-230, T196A;R199A).
T9 sequence: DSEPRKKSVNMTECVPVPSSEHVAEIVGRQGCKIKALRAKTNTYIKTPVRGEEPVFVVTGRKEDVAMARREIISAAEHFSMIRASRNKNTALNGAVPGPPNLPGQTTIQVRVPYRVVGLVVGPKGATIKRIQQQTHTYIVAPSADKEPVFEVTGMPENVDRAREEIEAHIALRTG
The data set can be described thus: ITC; N 0.68; ITC at 298 K, protein injected into RNA, both dialyzed in the same buffer (composition not in the material; purification SEC buffer 2 M NaCl, 20 mM Tris pH 7.5); NMR at 298 K, 0.1 mM protein. Particulars: protein: recombinant; tags: 6xHis-SUMO cleaved (ULP1).

The target in data set [13] is T1, hMEX3B KH1/2 WT. The data set can be described thus: ITC; ITC at 298 K, protein injected into RNA, both dialyzed in the same buffer (composition not in the material; purification SEC buffer 2 M NaCl, 20 mM Tris pH 7.5); NMR at 298 K, 0.1 mM protein. Particulars: protein: recombinant; tags: 6xHis-SUMO cleaved (ULP1).
Data set [14] has as its target T1, hMEX3B KH1/2 WT. The data set can be described thus: ITC; N 0.84; text says larger than 1.11 uM; ITC at 298 K, protein injected into RNA, both dialyzed in the same buffer (composition not in the material; purification SEC buffer 2 M NaCl, 20 mM Tris pH 7.5); NMR at 298 K, 0.1 mM protein. Particulars: protein: recombinant; tags: 6xHis-SUMO cleaved (ULP1).
Data set [15] concerns the target T3, hMEX3B KH1 WT. The data set can be described thus: ITC; N 0.89; ITC at 298 K, protein injected into RNA, both dialyzed in the same buffer (composition not in the material; purification SEC buffer 2 M NaCl, 20 mM Tris pH 7.5); NMR at 298 K, 0.1 mM protein. To be noted: protein: recombinant; tags: modified pET28a without thrombin site (His tag likely retained).

Bounds are passed on as bounds.

The Kd is the concentration at which binding is half-saturated.

For the molecule CCGAGCUGUAAC (ssRNA) [12-nt RNA U2C], in the data set with hMEX3B KH1/2 WT [1], the Kd came out at 0.72 ± 0.09 µM.

With CUGAGCUGUACC (ssRNA) [12-nt RNA A11C], the Kd with hMEX3B KH1/2 WT [2] was found to be 0.89 ± 0.09 µM. Take CUGAGCUGUCAC (ssRNA) [12-nt RNA A10C]: the equilibrium dissociation constant (Kd) with hMEX3B KH1/2 WT [3] amounted to 1.58 ± 0.24 µM. As for CUGAGC (ssRNA) [6-nt RNA CUGAGC], in the data set with hMEX3B KH2 WT [4], the Kd is 9.57 ± 0.99 µM.

Turning to CCCCCC (ssRNA) [C6 RNA], the binding result with hMEX3B KH1 WT [5] and in the data set with hMEX3B KH2 WT [6] was “no binding” throughout.

Regarding CUGCGCUGUAAC (ssRNA) [12-nt RNA A4C], the Kd with hMEX3B KH1/2 WT [7] turned out to be 2.1 ± 0.31 µM. Regarding CUGAGCUGUAAC (ssRNA) [12-nt RNA], the equilibrium dissociation constant (Kd) is 21.7 ± 6.87 µM in the data set with hMEX3B KH2 WT [8]; 2.08 ± 0.29 µM in [9]; 10.4 ± 1.29 µM with hMEX3B KH1/2 (G83D/G86D); 7.42 ± 1.32 µM in [10]; 0.0436 ± 0.00763 µM with hMEX3B KH1/2 WT [7]; 26.2 ± 7.4 µM with hMEX3B KH1 WT [11]. The Kd in data set [12] was found to be 5.98 ± 0.59 µM. For the same molecule, the binding result with hMEX3B KH1/2 (G4D) and with hMEX3B KH1/2 (TR4A) was “no binding” in each case.

For the molecule CCCCCCCCCCCC (ssRNA) [C12 RNA], in the data set with hMEX3B KH1/2 WT [13], the binding result is listed as “no binding”.

For the molecule UGUAACCUGAGC (ssRNA) [switched 12-nt RNA], the Kd with hMEX3B KH1/2 WT [14] was more than 1.11 µM. As to UGUAAC (ssRNA) [6-nt RNA UGUAAC], the dissociation constant Kd with hMEX3B KH1 WT [15] was 10.3 ± 0.61 µM.
